Measurements: IntAct's records for PubMed 16763556

B1: DNA polymerase iota (Homo sapiens), Q9UNA4 (parent)
chain: MEKLGVEPEEEGGGDDDEEDAEAWAMELADVGAAASSQGVHDQVLPTPNASSRVIVHVDLDCFYAQVEMISNPELKDKPLGVQQKYLVVTCNYEARKLGVKKLMNVRDAKEKCPQLVLVNGEDLTRYREMSYKVTELLEEFSPVVERLGFDENFVDLTEMVEKRLQQLQSDELSAVTVSGHVYNNQSINLLDVLHIRLLVGSQIAAEMREAMYNQLGLTGCAGVASNKLLAKLVSGVFKPNQQTVLLPESCQHLIHSLNHIKEIPGIGYKTAKCLEALGINSVRDLQTFSPKILEKELGISVAQRIQKLSFGEDNSPVILSGPPQSFSEEDSFKKCSSEVEAKNKIEELLASLLNRVCQDGRKPHTVRLIIRRYSSEKHYGRESRQCPIPSHVIQKLGTGNYDVMTPMVDILMKLFRNMVNVKMPFHLTLLSVCFCNLKALNTAKKGLIDYYLMPSLSTTSRSGKHSFKMKDTHMEDFPKDKETNRDFLPSGRIESTRTRESPLDTTNFSKEKDINEFPLCSLPEGVDQEVFKQLPVDIQEEILSGKSREKFQGKGSVSCPLHASRGVLSFFSKKQMQDIPINPRDHLSSSKQVSSVSPCEPGTSGFNSSSSSYMSSQKDYSYYLDNRLKDERISQGPKEPQGFHFTNSNPAVSAFHSFPNLQSEQLFSRNHTTDSHKQTVATDSHEGLTENREPDSVDEKITFPSDIDPQVFYELPEAVQKELLAEWKRAGSDFHIGHK
B2: DNA polymerase eta (Homo sapiens), Q9Y253 (parent)
chain: MATGQDRVVALVDMDCFFVQVEQRQNPHLRNKPCAVVQYKSWKGGGIIAVSYEARAFGVTRSMWADDAKKLCPDLLLAQVRESRGKANLTKYREASVEVMEIMSRFAVIERASIDEAYVDLTSAVQERLQKLQGQPISADLLPSTYIEGLPQGPTTAEETVQKEGMRKQGLFQWLDSLQIDNLTSPDLQLTVGAVIVEEMRAAIERETGFQCSAGISHNKVLAKLACGLNKPNRQTLVSHGSVPQLFSQMPIRKIRSLGGKLGASVIEILGIEYMGELTQFTESQLQSHFGEKNGSWLYAMCRGIEHDPVKPRQLPKTIGCSKNFPGKTALATREQVQWWLLQLAQELEERLTKDRNDNDRVATQLVVSIRVQGDKRLSSLRRCCALTRYDAHKMSHDAFTVIKNCNTSGIQTEWSPPLTMLFLCATKFSASAPSSSTDITSFLSSDPSSLPKVPVTSSEAKTQGSGPAVTATKKATTSLESFFQKAAERQKVKEASLSSLTAPTQAPMSNSPSKPSLPFQTSQSTGTEPFFKQKSLLLKQKQLNNSSVSSPQQNPWSNCKALPNSLPTEYPGCVPVCEGVSKLEESSKATPAEMDLAHNSQSMHASSASKSVLEVTQKATPNPSLLAAEDQVPCEKCGSLVPVWDMPEHMDYHFALELQKSFLQPHSSNPQVVSAVSHQGKRNPKSPLACTNKRPRPEGMQTLESFFKPLTH

Variants of: B1
Details: with ubc_human UBC

Row | effect of a mutation on the interaction | Variant
1 | decreasing interaction strength | P717R

Variants of: B2
Details: with ubc_human UBC

Row | effect of a mutation on the interaction | Variant
2 | disrupting interaction | H654A
